B1: dsGC-rich RNA (dsRNA)
RNA 1: AGGCGGGCGGGCGACGGCGGU
RNA 2: ACCGCCGUCGCCCGCCCGCCU

How the values were obtained:
[1] = molecular target: T1, MRB1590(10-668) (Trypanosoma brucei, UniProt UPI00067E648B 10-668); assay: fluorescence polarization; ADP, Mg2+; FP: 20 mM Tris-HCl pH 7.5, 150 mM NaCl, 5% glycerol, 1 mM MgCl2, 2 mM ADP or AMP-PNP, 1 nM 3'-fluoresceinated RNA (heated to 99 C, slow cooled), 25 C; conditions: protein: recombinant, chain copies: 2
T1 sequence: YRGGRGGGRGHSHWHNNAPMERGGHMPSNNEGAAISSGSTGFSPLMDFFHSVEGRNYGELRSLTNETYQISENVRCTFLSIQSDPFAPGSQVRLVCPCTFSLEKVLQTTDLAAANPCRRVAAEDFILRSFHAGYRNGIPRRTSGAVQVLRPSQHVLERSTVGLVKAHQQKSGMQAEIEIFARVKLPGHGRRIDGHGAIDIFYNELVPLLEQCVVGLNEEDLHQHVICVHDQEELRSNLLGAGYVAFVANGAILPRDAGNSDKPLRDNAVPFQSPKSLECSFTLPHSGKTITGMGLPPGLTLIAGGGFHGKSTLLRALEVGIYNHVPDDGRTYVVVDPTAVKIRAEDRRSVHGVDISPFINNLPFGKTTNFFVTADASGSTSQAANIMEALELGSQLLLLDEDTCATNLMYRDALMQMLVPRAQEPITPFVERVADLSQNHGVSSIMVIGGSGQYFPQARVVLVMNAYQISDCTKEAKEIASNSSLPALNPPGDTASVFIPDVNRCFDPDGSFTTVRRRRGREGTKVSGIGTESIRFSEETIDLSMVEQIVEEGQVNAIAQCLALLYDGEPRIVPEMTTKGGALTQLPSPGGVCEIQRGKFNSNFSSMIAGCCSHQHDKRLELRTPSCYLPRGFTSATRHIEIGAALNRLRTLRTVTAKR

[2] = molecular target: MRB1590 Y637A (Trypanosoma brucei, UniProt UPI00067E648B 10-668, Y637A); assay: fluorescence polarization; ADP, Mg2+; little effect vs wt; FP: 20 mM Tris-HCl pH 7.5, 150 mM NaCl, 5% glycerol, 1 mM MgCl2, 2 mM ADP or AMP-PNP, 1 nM 3'-fluoresceinated RNA (heated to 99 C, slow cooled), 25 C; conditions: protein: recombinant; chain copies: 2; label: 3' fluorescein
[3] = molecular target: MRB1590 F95A (Trypanosoma brucei, UniProt UPI00067E648B 10-668, F95A); assay: fluorescence polarization; ADP, Mg2+; FP: 20 mM Tris-HCl pH 7.5, 150 mM NaCl, 5% glycerol, 1 mM MgCl2, 2 mM ADP or AMP-PNP, 1 nM 3'-fluoresceinated RNA (heated to 99 C, slow cooled), 25 C; conditions: protein: recombinant; chain copies: 2; label: 3' fluorescein
[4] = molecular target: MRB1590 R199A-R200A (Trypanosoma brucei, UniProt UPI00067E648B 10-668, R199A;R200A); assay: as above; conditions: protein: recombinant; chain copies: 2; label: 3' fluorescein
[5] = molecular target: MRB1590 R191A (Trypanosoma brucei, UniProt UPI00067E648B 10-668, R191A); assay: fluorescence polarization; ADP, Mg2+; small effect vs wt; FP: 20 mM Tris-HCl pH 7.5, 150 mM NaCl, 5% glycerol, 1 mM MgCl2, 2 mM ADP or AMP-PNP, 1 nM 3'-fluoresceinated RNA (heated to 99 C, slow cooled), 25 C; conditions: protein: recombinant; chain copies: 2; label: 3' fluorescein
[6] = molecular target: T1, MRB1590(10-668); assay: fluorescence polarization; ADP, Mg2+; 1 RNA : 2 subunits; FP: 20 mM Tris-HCl pH 7.5, 150 mM NaCl, 5% glycerol, 1 mM MgCl2, 2 mM ADP or AMP-PNP, 1 nM 3'-fluoresceinated RNA (heated to 99 C, slow cooled), 25 C; conditions: protein: recombinant; chain copies: 2; label: 3' fluorescein
[7] = molecular target: T1, MRB1590(10-668); assay: fluorescence polarization; AMP-PNP (table header says ATP), Mg2+; FP: 20 mM Tris-HCl pH 7.5, 150 mM NaCl, 5% glycerol, 1 mM MgCl2, 2 mM ADP or AMP-PNP, 1 nM 3'-fluoresceinated RNA (heated to 99 C, slow cooled), 25 C; conditions: protein: recombinant; chain copies: 2; label: 3' fluorescein

Binder	Kd ([1]; label: 3' fluorescein) [µM]	other results
B1	–	Kd [1]: 0.05 ± 0.015 µM
GAUUUUUUGAGUGGGACUGGAGAGAAAGAGCCGUUCGAGC (ssRNA) [RSP12 #2]	0.027 ± 0.0028	–
AGGCGGGCGGGCGACGGCGGU (ssRNA) [GC-rich sequence RNA (A6 pause site, 21 mer)]	–	binding result [2]: binds; binding signal [3]: 10 fold reduction vs wt; binding signal [4]: 590 fold reduction vs wt; binding result [5]: binds; Kd [6]: 0.0022 ± 0.0002 µM
ACCGCCGUCGCCCGCCCGCCU (ssRNA) [Complement of GC-rich RNA]	0.395 ± 0.095	Kd [7]: 0.377 ± 0.069 µM
CUAAUACACUUUUGAUAACAAACUAAAGUAAAAAGGCGAG (ssRNA) [RSP12 #1]	0.063 ± 0.0025	–
GAACCUGGUAGGUGUAAUGAAAUAAUUUUGU (ssRNA) [COX II #2]	0.043 ± 0.0016	–
GAGAAGGCGAGGGCGACGGGCAAAAGAUUUU (ssRNA) [NAD7 #2]	0.0078 ± 0.0005	–
AGAGGCGGGCGGGCGACGGCGGU (structured_RNA) [GC-rich hairpin RNA]	–	binding result ([1]; label: 3' fluorescein, hairpin): no binding
AAAAAAAAAAAAAAA (ssRNA) [A15 RNA]	0.437 ± 0.08	–
UUUUUUUUUUUUUUU (ssRNA) [U15 RNA]	0.182 ± 0.03	–
UGAUACAAAAAAACAUGACUACAUGAUAAGUA (ssRNA) [NAD7 #1]	0.05 ± 0.004	–
ACAAUAUCAAGUUUAGGUAUAAAGUAGA (ssRNA) [COX II #1]	0.044 ± 0.002	–

— publication PMC4538832, “Structures of the T. brucei kRNA editing factor MRB1590 reveal unique RNA-binding pore motif contained within an ABC-ATPase fold”
